# Laboratory results as given in patent US12552837B2, “Bicyclic peptide ligands with detectable moieties and uses thereof” (BicycleRD Limited, priority 2017, dated 2026).
# *1 amine or outer side, *2 acyl side, *3 side chain or, on linkers, in order; H or OH if unused. Where a SMILES comes first, the peptide text is derived from it. Bridges are numbered along the chain shown (N, C = ends). [ ]: non-standard residue; d: D form. The star is where a group is joined. DOTA = O=C(O)CN1CCN(CC(=O)O)CCN(CC(=O)*)CCN(CC(=O)O)CC1; 1Nal = N[C@@H](Cc1cccc2ccccc12)C(=O)O; TBMB = c1c(C[*:1])cc(C[*:3])cc1C[*:2]; Tle = CC(C)(C)[C@H](N)C(=O)O
# Tested on: xenograft tumor
# Test: μPET imaging with 68Ga-labelled Bicycle peptides in xenograft mice
# Type: in vivo
# Conditions: 150 pmoles
# Experimental: General method for μPET imaging: the mice were anaesthetized (2% sevoflurane, Abbott), placed into the small animal PET scanner (Inveon PET, Siemens) and injected with 68Ga-labeled Bicycle peptides. A 20 min transmission scan, a 50 min dynamic scan and a static scan from 100 to 120 min p.i. were performed. Images were reconstructed iteratively using the space alternating generalized expectation maximization method (SAGE, 16 subsets, 4 iterations) applying median root prior correction and were converted to standardized uptake value (SUV) images. Quantitation was done using a ROI (region of interest) technique and expressed as SUVmean.
# General method for radiolabeling with Ga-68: ^68Ga (half-life 68 min; β^+ 89%; Eβ+max. 1.9 MeV) was obtained from a in house ^68Ge/^68Ga generator based on pyrogallol resin support. 1 GBq ^68Ga was eluted using 5.5 M HCl. The activity was trapped on a small anion-exchanger cartridge (AG1X8, Biorad, Richmond, CA, USA) as [^68Ga]GaCl4^−. The radiogallium was eluted from the cartridge in a final volume of 300 μL ultrapure water (Merck, Darmstadt, Germany) as [^68Ga]GaCl3.
# 1 nmol Bicycle peptide in 1 μL DMSO was added to a mixture of 50 μL 0.05 M HEPES, 0.1% Tween-20, and 80 μL [^68Ga]Ga^3+ eluate (˜200 MBq). The pH of the labelling solution was adjusted to 4.2 using 30% NaOH. The reaction mixture was incubated at 98° C. for 10 minutes. The radiochemical yield (RCY) was determined using reversed-phase high performance liquid chromatography (RP-HPLC; Chromolith RP-18e, 100×4.6 mm; Merck, Darmstadt, Germany). The analytical HPLC run was performed using a linear A-B gradient (0% B to 100% B in 6 min) at a flow rate of 4 mL/min. Solvent A consisted of 0.1% aqueous TFA and solvent B was 0.1% TFA in CH3CN.
# For μPET imaging, the labelling reaction mixture was diluted in injection buffer (0.25 M Na-Acetate 0.05% Tween-20 pH 7) by a factor of 6 to obtain 150 pmoles in 100 μL injection buffer. The anaesthetized mouse (2% sevoflurane, Abbott) was injected with 100 μL of ^68Ga-labelled I-23 (˜25 MBq) and placed in a small animal PET scanner (Inveon PET, Siemens). The imaging was performed 60 min post-injection and included a 15 min transmission scan before injection and a 60 min emission scan post-injection. Scans from μPET imaging were reconstructed iteratively using the space alternating generalized expectation maximization method (SAGE, 16 subsets, 4 iterations) applying median root prior correction and were converted to standardized uptake value (SUV) images. Quantitation was accomplished using an ROI (region of interest) technique and expressed as SUVmean.
# The radiolabelling with Ga-68 was done as described before. […] Quantitation was accomplished using an ROI (region of interest) technique and expressed as SUVmean. […]
smiles,measurement,value
C[C@H](NC(=O)CN1CCN(CC(=O)O)CCN(CC(=O)O)CCN(CC(=O)O)CC1)C(=O)N[C@H]1CSCc2cc3cc(c2)CSC[C@H](NC(=O)[C@@H](C)NC(=O)[C@H](Cc2cccc4ccccc24)NC(=O)[C@H](CCC(=O)O)NC(=O)[C@H](CC(N)=O)NC(=O)[C@@H](C)NC1=O)C(=O)N[C@@H](CCC(=O)O)C(=O)N[C@@H](CC(=O)O)C(=O)N[C@@H](Cc1ccccc1)C(=O)N[C@@H](Cc1ccc(O)cc1)C(=O)N[C@@H](CC(=O)O)C(=O)N[C@@H](C(C)(C)C)C(=O)N[C@H](C(N)=O)CSC3 [I-23] ({DOTA}-AC[dA]NE[1Nal][dA]CEDFYD[Tle]C-NH2; linker 2-8-15 via TBMB),time post injection from which high imaging contrasts are seen,20 min
same,tumor uptake in μPET images,MMP-14-selective tumor uptake
